Measured values reported in patent US20170082633A1 (WHITEHEAD INSTITUTE FOR BIOMEDICAL RESEARCH, published 2017).
Positions count from the first letter of the chain named. Names may count otherwise. One block for each binder: values may come before it.

Assays:
[1] = biological target: T1, co-expressed epitope tagged Ragulator proteins (UniProt Q6IAA8 2-161; Q9Y2Q5 1-125; Q9UHA4 1-124; Q0VGL1 1-99; O43504 1-91); experiment: FLAG IP (FLAG-p14) from HEK-293T cells co-transfected with the HA-tagged Ragulator components and HA-SLC38A9.4; immunoblot
endogenous RagC [2] = biological target: T2, endogenous RagC (UniProt Q9HB90 2-399); experiment: FLAG IP from transfected HEK-293T cells, immunoblot
T2 construct: Detected by immunoblot in anti-FLAG immunoprecipitates; also called RagC GTPase
T2 sequence (Q9HB90 2-399 limits assumed): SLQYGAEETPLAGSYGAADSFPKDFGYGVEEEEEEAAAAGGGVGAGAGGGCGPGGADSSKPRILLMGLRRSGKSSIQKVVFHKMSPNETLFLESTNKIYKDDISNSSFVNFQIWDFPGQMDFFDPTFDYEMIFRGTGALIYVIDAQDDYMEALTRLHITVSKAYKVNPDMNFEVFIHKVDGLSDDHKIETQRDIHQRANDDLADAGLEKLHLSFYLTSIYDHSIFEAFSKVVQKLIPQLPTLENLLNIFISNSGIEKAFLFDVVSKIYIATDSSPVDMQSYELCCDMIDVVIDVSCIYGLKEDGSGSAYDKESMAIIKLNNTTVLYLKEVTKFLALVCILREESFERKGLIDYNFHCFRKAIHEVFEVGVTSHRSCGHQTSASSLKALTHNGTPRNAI
Protocol: (§1) HEK-293T cells were cultured in DMEM supplemented with 10% inactivated fetal bovine serum, penicillin (100 IU/mL), and streptomycin (100 μg/mL) and maintained at 37° C. and 5% CO₂. Two million HEK-293T cells were plated in 10 cm culture dishes.
(§2) Transfection mixes were taken up to a total of 5 μg of DNA using empty pRK5. HEK-293T cells stably expressing FLAG-tagged proteins were rinsed once with ice-cold PBS and lysed in ice-cold lysis buffer (40 mM HEPES pH 7.4, 1% Triton X-100, 10 mM β-glycerol phosphate, 10 mM pyrophosphate, 2.5 mM MgC12 and 1 tablet of EDTA-free protease inhibitor (Roche) per 25 ml buffer). The soluble fractions from cell lysates were isolated by centrifugation at 13,000 rpm for 10 min in a microcentrifuge. […] Immunoprecipitates were washed three times with lysis buffer containing 500 mM NaCl. Immunoprecipitated proteins were denatured by the addition of 50 μL of sample buffer and incubation at RT for 30 min. It is critical that the samples containing SLC38A9 are neither boiled nor frozen prior to resolution by SDS-PAGE and analysis by immunoblotting. A similar protocol was employed when preparing samples for mass spectrometry.

endogenous Ragulator [3] = biological target: T3, endogenous Ragulator (UniProt Q6IAA8 2-161; Q9Y2Q5 1-125; Q9UHA4 1-124; Q0VGL1 1-99; O43504 1-91); experiment: anti-FLAG co-immunoprecipitation from HEK-293T cells, immunoblot
Protocol: as §1, §2

endogenous RagA = biological target: T4, endogenous RagA (UniProt Q7L523 1-313); experiment: FLAG IP from transfected HEK-293T cells, immunoblot
T4 construct: Detected by immunoblot in anti-FLAG immunoprecipitates; also called RagA GTPase
T4 sequence (Q7L523 whole entry): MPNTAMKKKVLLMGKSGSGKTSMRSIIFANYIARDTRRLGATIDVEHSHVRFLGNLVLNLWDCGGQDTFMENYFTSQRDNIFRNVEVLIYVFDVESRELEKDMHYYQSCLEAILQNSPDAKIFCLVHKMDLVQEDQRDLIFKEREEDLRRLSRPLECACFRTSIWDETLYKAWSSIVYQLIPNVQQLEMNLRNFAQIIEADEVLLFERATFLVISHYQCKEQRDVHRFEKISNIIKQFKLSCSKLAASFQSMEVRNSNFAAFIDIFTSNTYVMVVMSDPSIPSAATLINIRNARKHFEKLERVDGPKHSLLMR
Protocol: as §1, §2

endogenous p18 [4] = biological target: T5, endogenous p18 (UniProt Q6IAA8 2-161); experiment: FLAG IP from HEK-293T cells stably expressing the bait, immunoblot
T5 construct: Detected by immunoblot in anti-FLAG immunoprecipitates; also called LAMTOR1
Protocol: as §2

endogenous RagC [5] = biological target: T2, endogenous RagC; experiment: as above
Protocol: as §2

endogenous Ragulator [6] = biological target: T3, endogenous Ragulator; experiment: co-immunoprecipitation from HEK-293T cells, immunoblot
Protocol: as §2

[7] = biological target: T1, co-expressed epitope tagged Ragulator …; experiment: as above
Protocol: as §2

endogenous p14 = biological target: T6, endogenous p14 (UniProt Q9Y2Q5 1-125); experiment: FLAG IP from transfected HEK-293T cells, immunoblot
T6 construct: Detected by immunoblot in anti-FLAG immunoprecipitates; also called LAMTOR2
Protocol: as §1, §2

endogenous p18 [8] = biological target: T5, endogenous p18; experiment: as above
Protocol: as §1, §2

B1: HA-SLC38A9.4 (other)
single chain: LVTIFMIWNTMMGTSILSIPWGIKQAGFTTGMCVIILMGLLTLYCCYRVVKSRTMMFSLDTTSWEYPDVCRHYFGSFGQWSSLLFSLVSLIGAMIVYWVLMSNFLFNTGKFIFNFIHHINDTDTILSTNNSNPVICPSAGSGGHPDNSSMIFYANDTGAQQFEKWWDKSRTVPFYLVGLLLPLLNFKSPSFFSKFNILGTVSVLYLIFLVTFKAVRLGFHLEFHWFIPTEFFVPEIRFQFPQLTGVLTLAFFIHNCIITLLKNNKKQENNVRDLCIAYMLVTLTYLYIGVLVFASFPSPPLSKDCIEQNFLDNFPSSDTLSFIARIFLLFQMMTVYPLLGYLARVQLLGHIFGDIYPSIFHVLILNLIIVGAGVIMACFYPNIGGIIRYSGAACGLAFVFIYPSLIYIISLHQEERLTWPKLIFHVFIIILGVANLIVQFFM
notes: also called HA-tagged SLC38A9 isoform 4
- binding result [1]: no binding

B2: FLAG-LAMP1 (other)
chain: DYKDDDDKAMFMVKNGNGTACIMANFSAAFSVNYDTKSGPKNMTFDLPSDATVVLNRSSCGKENTSDPSLVIAFGRGHTLTLNFTRNATRYSVQLMSFVYNLSDTHLFPNASSKEIKTVESITDIRADIDKKYRCVSGTQVHMNNVTVTLHDATIQAYLSNSSFSRGETRCEQDRPSPTTAPPAPPSPSPSPVPKSPSVDKYNVSGTNGTCLLASMGLQLNLTYERKDNTTVTRLLNINPNKTSASGSCGAHLVTLELHSEGTTVLLFQFGMNASSSRFFLQGIQLNTILPDARDPAFKAANGSLRALQATVGNSYKCNAEEHVRVTKAFSVNIFKVWVQAFKVEGGQFGSVEECLLDENSMLIPIAVGGALAGLVLIVLIAYLVGRKRSHAGYQTI
notes: Control lysosomal membrane protein
- binding result (endogenous RagC [2]): no binding

B3: FLAG-SLC38A9.1 (other)
chain: DYKDDDDKMANMNSDSRHLGTSEVDHERDPGPMNIQFEPSDLRSKRPFCIEPTNIVNVNHVIQRVSDHASAMNKRIHYYSRLTTPADKALIAPDHVVPAPEECYVYSPLGSAYKLQSYTEGYGKNTSLVTIFMIWNTMMGTSILSIPWGIKQAGFTTGMCVIILMGLLTLYCCYRVVKSRTMMFSLDTTSWEYPDVCRHYFGSFGQWSSLLFSLVSLIGAMIVYWVLMSNFLFNTGKFIFNFIHHINDTDTILSTNNSNPVICPSAGSGGHPDNSSMIFYANDTGAQQFEKWWDKSRTVPFYLVGLLLPLLNFKSPSFFSKFNILGTVSVLYLIFLVTFKAVRLGFHLEFHWFIPTEFFVPEIRFQFPQLTGVLTLAFFIHNCIITLLKNNKKQENNVRDLCIAYMLVTLTYLYIGVLVFASFPSPPLSKDCIEQNFLDNFPSSDTLSFIARIFLLFQMMTVYPLLGYLARVQLLGHIFGDIYPSIFHVLILNLIIVGAGVIMACFYPNIGGIIRYSGAACGLAFVFIYPSLIYIISLHQEERLTWPKLIFHVFIIILGVANLIVQFFM
notes: Lysosomal membrane amino acid transporter, expressed in HEK-293T cells and immunoprecipitated from Triton X-100 lysate with anti-FLAG gel; also called SLC38A9 isoform 1; full-length SLC38A9
- binding result (endogenous Ragulator [3]): binds

B4: FLAG-N-terminal 119 fragment of SLC38A9.1 (other)
chain: DYKDDDDKMANMNSDSRHLGTSEVDHERDPGPMNIQFEPSDLRSKRPFCIEPTNIVNVNHVIQRVSDHASAMNKRIHYYSRLTTPADKALIAPDHVVPAPEECYVYSPLGSAYKLQSYTEGYGKNTS
- binding result (endogenous RagA): binds
- binding result (endogenous Ragulator [3]): binds
- binding result (endogenous p18 [4]): binds
- binding result (endogenous RagC [5]): binds

B5: FLAG-SLC38A9.2 (other)
chain: DYKDDDDKMNKRIHYYSRLTTPADKALIAPDHVVPAPEECYVYSPLGSAYKLQSYTEGYGKNTSLVTIFMIWNTMMGTSILSIPWGIKQAGFTTGMCVIILMGLLTLYCCYRVVKSRTMMFSLDTTSWEYPDVCRHYFGSFGQWSSLLFSLVSLIGAMIVYWVLMSNFLFNTGKFIFNFIHHINDTDTILSTNNSNPVICPSAGSGGHPDNSSMIFYANDTGAQQFEKWWDKSRTVPFYLVGLLLPLLNFKSPSFFSKFNILGTVSVLYLIFLVTFKAVRLGFHLEFHWFIPTEFFVPEIRFQFPQLTGVLTLAFFIHNCIITLLKNNKKQENNVRDLCIAYMLVTLTYLYIGVLVFASFPSPPLSKDCIEQNFLDNFPSSDTLSFIARIFLLFQMMTVYPLLGYLARVQLLGHIFGDIYPSIFHVLILNLIIVGAGVIMACFYPNIGGIIRYSGAACGLAFVFIYPSLIYIISLHQEERLTWPKLIFHVFIIILGVANLIVQFFM
notes: also called SLC38A9 isoform 2; isoform 2
- binding result (endogenous Ragulator [6]): no binding
- binding result [7]: no binding

The next lines start with the values.

- binding result (endogenous p14): no binding
- binding result (endogenous p18 [8]): no binding
- binding result (endogenous RagA): no binding
- binding result (endogenous RagC [2]): no binding
B6: FLAG-SLC38A9.1 L74A (other)
single chain: MANMNSDSRHLGTSEVDHERDPGPMNIQFEPSDLRSKRPFCIEPTNIVNVNHVIQRVSDHASAMNKRIHYYSRATTPADKALIAPDHVVPAPEECYVYSPLGSAYKLQSYTEGYGKNTSLVTIFMIWNTMMGTSILSIPWGIKQAGFTTGMCVIILMGLLTLYCCYRVVKSRTMMFSLDTTSWEYPDVCRHYFGSFGQWSSLLFSLVSLIGAMIVYWVLMSNFLFNTGKFIFNFIHHINDTDTILSTNNSNPVICPSAGSGGHPDNSSMIFYANDTGAQQFEKWWDKSRTVPFYLVGLLLPLLNFKSPSFFSKFNILGTVSVLYLIFLVTFKAVRLGFHLEFHWFIPTEFFVPEIRFQFPQLTGVLTLAFFIHNCIITLLKNNKKQENNVRDLCIAYMLVTLTYLYIGVLVFASFPSPPLSKDCIEQNFLDNFPSSDTLSFIARIFLLFQMMTVYPLLGYLARVQLLGHIFGDIYPSIFHVLILNLIIVGAGVIMACFYPNIGGIIRYSGAACGLAFVFIYPSLIYIISLHQEERLTWPKLIFHVFIIILGVANLIVQFFM

- binding result (endogenous p14): no binding
- binding result (endogenous p18 [8]): no binding
- binding result (endogenous RagA): no binding
- binding result (endogenous RagC [2]): no binding
B7: FLAG-SLC38A9.1 P90A (other)
single chain: B6 single chain with A74L, P90A
notes: Full-length mutant

- binding result (endogenous p14): no binding
- binding result (endogenous p18 [8]): no binding
- binding result (endogenous RagA): no binding
- binding result (endogenous RagC [2]): no binding
B8: FLAG-SLC38A9.1 Y71A (other)
single chain: B6 single chain with Y71A, A74L
notes: Full-length mutant

- binding result (endogenous p14): no binding
- binding result (endogenous p18 [8]): no binding
- binding result (endogenous RagA): no binding
- binding result (endogenous RagC [2]): no binding
B9: FLAG-SLC38A9.1 P85A (other)
single chain: B6 single chain with A74L, P85A
notes: Full-length mutant

- binding result (endogenous Ragulator [6]): no binding
- binding result [7]: no binding
B10: FLAG-SLC38A9.1 Δ110 (other)
chain: DYKDDDDKTEGYGKNTSLVTIFMIWNTMMGTSILSIPWGIKQAGFTTGMCVIILMGLLTLYCCYRVVKSRTMMFSLDTTSWEYPDVCRHYFGSFGQWSSLLFSLVSLIGAMIVYWVLMSNFLFNTGKFIFNFIHHINDTDTILSTNNSNPVICPSAGSGGHPDNSSMIFYANDTGAQQFEKWWDKSRTVPFYLVGLLLPLLNFKSPSFFSKFNILGTVSVLYLIFLVTFKAVRLGFHLEFHWFIPTEFFVPEIRFQFPQLTGVLTLAFFIHNCIITLLKNNKKQENNVRDLCIAYMLVTLTYLYIGVLVFASFPSPPLSKDCIEQNFLDNFPSSDTLSFIARIFLLFQMMTVYPLLGYLARVQLLGHIFGDIYPSIFHVLILNLIIVGAGVIMACFYPNIGGIIRYSGAACGLAFVFIYPSLIYIISLHQEERLTWPKLIFHVFIIILGVANLIVQFFM
notes: also called SLC38A9 Δ110

- binding result (endogenous Ragulator [6]): no binding
- binding result [7]: no binding
B11: FLAG-SLC38A9.4 (other)
chain: DYKDDDDKLVTIFMIWNTMMGTSILSIPWGIKQAGFTTGMCVIILMGLLTLYCCYRVVKSRTMMFSLDTTSWEYPDVCRHYFGSFGQWSSLLFSLVSLIGAMIVYWVLMSNFLFNTGKFIFNFIHHINDTDTILSTNNSNPVICPSAGSGGHPDNSSMIFYANDTGAQQFEKWWDKSRTVPFYLVGLLLPLLNFKSPSFFSKFNILGTVSVLYLIFLVTFKAVRLGFHLEFHWFIPTEFFVPEIRFQFPQLTGVLTLAFFIHNCIITLLKNNKKQENNVRDLCIAYMLVTLTYLYIGVLVFASFPSPPLSKDCIEQNFLDNFPSSDTLSFIARIFLLFQMMTVYPLLGYLARVQLLGHIFGDIYPSIFHVLILNLIIVGAGVIMACFYPNIGGIIRYSGAACGLAFVFIYPSLIYIISLHQEERLTWPKLIFHVFIIILGVANLIVQFFM
notes: also called SLC38A9 isoform 4; isoform 4
